Binding signal (% positive events) data for 2 sequences are collected here from paper PMC6889386.

In this data set the target is EGFR on A549-derived exosomes (A-Exo) (UniProt P00533). As to the kind of experiment: flow cytometry. The settings on record: MSN-aptamer conjugates incubated with PKH67-labelled exosomes in cell medium or rat blood (37 C, 1-4 h, static or 100 rpm), buffer details not given.

“TACCAGTGCGATGCTCAGTGCCGTTTCTTCTCTTTCGCTTTTTTTGCTTTTGAGCATGCTGACGCATTCGGTTGAC [anti-EGFR DNA aptamer on negatively charged MSN (MSN-AP-)]” displayed a binding signal (% positive events) (amino-functionalized (terminus not stated), EDC/NHS-conjugated to MSN-COOH nanoparticle) of 8.1.

Where the note is “carboxyl-functionalized (terminus not stated), EDC/NHS-conjugated to MSN-NH2 nanoparticle”, “TACCAGTGCGATGCTCAGTGCCGTTTCTTCTCTTTCGCTTTTTTTGCTTTTGAGCATGCTGACGCATTCGGTTGAC [anti-EGFR DNA aptamer on positively charged MSN (MSN-AP)]” displayed a binding signal (% positive events) of 26.6.
